Reference: publication PMC6759604 (Frontiers in Microbiology, 2019)

Key:
[1] = biological target: Vibrio parahaemolyticus HqsK (VP1876) D499A (Vibrio parahaemolyticus) (UniProt Q87NJ2)
[2] = biological target: Vp HqsK (VP1876 HK; H-NOX-associated quorum sensing kinase) (Vibrio parahaemolyticus, UniProt Q87NJ2); conditions: 250 μM OMFP, pH 8.0, room temperature

Row | Compound | inhibition of HqsK autophosphorylation ([gamma-32P]-ATP, SDS-PAGE, autoradiography) by Fe(II)-NO H-NOX; 69.4 uM H-NOX, 5.3 uM HqsK D499A, purified proteins, room temperature, anaerobic [1] [%] | phosphatase assay, O-methylfluorescein release at 450 nm [2]
1 | Vibrio parahaemolyticus H-NOX (VP1877) (from UniProt Q87NJ1 1-179) (natural protein) | 75 | –
2 | COc1ccc2c(c1)Oc1cc(OP(=O)(O)O)ccc1C21OC(=O)c2ccccc21 (centres unmarked) [3-O-methyl fluorescein phosphate] | – | Wild-type HqsK displays increasing OMF fluorescence over time, indicating Vp HqsK has phosphatase activity
